Assay [1] has as its target T1, ^FLAGSwi4-Swi6 complex (S. cerevisiae, UniProt P25302 1-1093; P09959 1-803).
T1 construct: Swi4, S. cerevisiae; Swi6, S. cerevisiae; also called SBF; recombinant SBF; source: baculovirus-infected insect cells, purified (anti-FLAG M2 resin, eluted with FLAG peptide)
Nature of the assay: co-IP; recombinant ^FLAGSwi4-Swi6-^GSTWhi5 complexes (0.1 ug ^GSTWhi5) incubated with 0.1, 0.2 and 0.5 ug His6-tagged Nrs1 (4, 8 and 20 Nrs1:Whi5 molar ratio), captured on anti-FLAG beads; blots with anti-GST and anti-HIS6. The following applies: both partners purified.

The target in assay [2] is T1, ^FLAGSwi4-Swi6 complex. Briefly: pull-down; recombinant ^HAWhi5 or ^GSTNrs1 titrated into preformed ^FLAGSwi4-Swi6-^GSTNrs1 or ^FLAGSwi4-Swi6-^HAWhi5 complexes immobilised on anti-FLAG resin; immunoblot and Coomassie. The following applies: both partners purified. A general note: In western blotting, separated proteins are transferred to a membrane and probed.

The text below walks through data of paper PMC8893695, “The microprotein Nrs1 rewires the G1/S transcriptional machinery during nitrogen limitation in budding yeast” (PLoS Biology, 2022).

T1 sequence (P25302 whole entry, chain 1 of 2): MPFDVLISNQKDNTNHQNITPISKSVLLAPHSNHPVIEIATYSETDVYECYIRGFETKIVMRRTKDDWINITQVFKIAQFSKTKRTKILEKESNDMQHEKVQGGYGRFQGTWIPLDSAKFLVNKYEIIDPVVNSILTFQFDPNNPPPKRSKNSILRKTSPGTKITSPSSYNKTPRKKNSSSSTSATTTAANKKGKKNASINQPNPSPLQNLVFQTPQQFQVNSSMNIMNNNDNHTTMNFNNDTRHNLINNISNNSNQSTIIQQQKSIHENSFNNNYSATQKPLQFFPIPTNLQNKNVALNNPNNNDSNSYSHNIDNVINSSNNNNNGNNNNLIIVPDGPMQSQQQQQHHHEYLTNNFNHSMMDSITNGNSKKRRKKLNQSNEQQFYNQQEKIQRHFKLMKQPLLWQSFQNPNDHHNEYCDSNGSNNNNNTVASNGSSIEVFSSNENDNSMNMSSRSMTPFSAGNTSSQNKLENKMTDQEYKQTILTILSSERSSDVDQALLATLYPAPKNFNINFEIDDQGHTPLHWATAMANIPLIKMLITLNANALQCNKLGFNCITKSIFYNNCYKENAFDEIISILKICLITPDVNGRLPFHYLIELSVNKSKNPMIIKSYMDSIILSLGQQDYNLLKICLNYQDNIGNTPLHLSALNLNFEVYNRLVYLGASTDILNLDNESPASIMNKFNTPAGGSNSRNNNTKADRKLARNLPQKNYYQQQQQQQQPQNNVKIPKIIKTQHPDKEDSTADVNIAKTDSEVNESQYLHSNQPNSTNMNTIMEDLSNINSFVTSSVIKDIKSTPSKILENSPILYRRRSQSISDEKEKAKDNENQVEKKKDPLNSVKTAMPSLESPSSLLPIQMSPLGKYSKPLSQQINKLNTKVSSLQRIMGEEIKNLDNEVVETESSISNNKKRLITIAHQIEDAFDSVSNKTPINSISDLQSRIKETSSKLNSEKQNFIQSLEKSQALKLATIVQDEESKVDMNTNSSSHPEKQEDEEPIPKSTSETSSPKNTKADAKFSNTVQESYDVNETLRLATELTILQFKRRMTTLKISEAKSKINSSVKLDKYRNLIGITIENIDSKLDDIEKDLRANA
T1 sequence (P09959 whole entry, chain 2 of 2): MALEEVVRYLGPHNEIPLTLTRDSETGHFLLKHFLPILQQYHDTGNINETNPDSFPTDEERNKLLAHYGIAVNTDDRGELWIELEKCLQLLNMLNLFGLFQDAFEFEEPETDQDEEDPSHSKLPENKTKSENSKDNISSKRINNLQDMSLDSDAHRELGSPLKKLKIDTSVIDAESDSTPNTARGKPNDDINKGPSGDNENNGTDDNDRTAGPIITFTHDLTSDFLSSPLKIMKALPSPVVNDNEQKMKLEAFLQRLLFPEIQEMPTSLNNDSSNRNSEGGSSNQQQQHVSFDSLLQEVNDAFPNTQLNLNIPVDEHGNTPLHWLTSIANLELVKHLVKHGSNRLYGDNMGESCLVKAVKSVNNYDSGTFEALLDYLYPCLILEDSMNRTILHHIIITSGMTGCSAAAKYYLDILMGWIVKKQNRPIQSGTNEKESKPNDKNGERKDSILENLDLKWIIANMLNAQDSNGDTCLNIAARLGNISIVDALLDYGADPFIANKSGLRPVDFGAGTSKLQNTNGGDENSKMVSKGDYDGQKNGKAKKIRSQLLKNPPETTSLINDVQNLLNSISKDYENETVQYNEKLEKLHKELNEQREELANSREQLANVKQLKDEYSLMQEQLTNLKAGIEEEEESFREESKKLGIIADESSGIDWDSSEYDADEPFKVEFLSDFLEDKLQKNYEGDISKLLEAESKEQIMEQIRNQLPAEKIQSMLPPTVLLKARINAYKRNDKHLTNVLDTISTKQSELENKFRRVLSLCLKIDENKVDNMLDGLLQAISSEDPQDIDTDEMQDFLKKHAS

B1: ^GSTWhi5 (natural protein, S. cerevisiae, UniProt Q12416 1-295, looked up)
chain: MSLRTPKRSRTSDEQEQEQEQEQVQNPDTHVNNEHQQRPGPTTLLSTPVRLKNGFGTPSPPSPPGITKSITKSRRRPSTTSLQGIFMSPVNKRRVGITAHGRVYDHNDDGHESESEDDENEEENENQKKYDGHVSMPLLPPTTPKSRRSEVFLSPSPRLRSPPTAARRSTGERPIREISHTLRTRLNYALVKLQNGWTDKTLPELETELAPAVQTPPRRYHNRFPDSADAGTSAHTAFLQALGGHPPREEATAVETLMLLSSPTKKQQHRPVPATSAGEPTDETEPESDTEVETS
notes: Whi5, S. cerevisiae; also called recombinant GST-tagged Whi5; source: recombinant
For B1, in the assay with ^FLAGSwi4-Swi6 complex [1], the binding result is listed as “binds”.

B2: recombinant ^HAWhi5 (natural protein, S. cerevisiae, UniProt Q12416 1-295, looked up)
chain: B1 chain
notes: Whi5, S. cerevisiae; source: recombinant
For the molecule B2, the binding result with ^FLAGSwi4-Swi6 complex [2] is given as “binds”.
